Reference: a protein production outcome set (Wang et al. 2014)

test: label from the status in PepcDB records

Sequence	protein production
MDPFDAGQAQRGNGSTESSGREDREGEEAQWVGVLTHAVLAADDPANLGDSAPAEGGHDQMLEEWAAEEGQNPLEDRQEAVRRVNAWNQGELNLAMLRLTSLPPLPAGLHSLDASFNRLTSLPETLPDALNSLNVNGNQLVSLPALPAGLALLDVWSNRLTSLPETLPAALEGLNVGNNQLTSLPEALPARLESLDVSVNQLTSLPETLPASLGSLDVGVNQLTSLPETLPTSLGRLYLNDNQLTSLPTGLLTQLGAAAEVVVSGNPLPQEMLMNLDTIQSTDGYAGPRVVFDLSETHEDQWEDAAVAPFPLETVAAESLPEAVADWLNGDPKEGDPEVVAKWQSFAEEPGAQQYADFLNGLRNTVNSGNEGFQQGVANDLRQAAANPQLRAQYFQLALDANESCADRRTLTWNGMQTARLIANVENGLYDNNEGVAALVDLGRVMFRLEALGGIAREKVQSLRTGGTINNVDEIEVYLAYQATLRERLGLQHIAPDMNYFYDSHLTEEDIDRAETSVRSKEATGFADYLATDWKPWDDVVLRIEPEHHATMEEKLADALEEEFPGRLKQKLVEAGLIGAEADVVADAEREFGPQVSKDIAREIKGALRDTVLNKRGLSL	failed
MDPLLVTVITTCGKVFQFHVDRRRNVGYLKKRISKEGKGFPEVDDQEILFKGEKLDDNRIIDGICKDGNSVIHLLVKKS	not failed
MDPSSVIWIFFVFLFFYPQVLFRYRLLQRYKFIKQFEAVRKTRAIVMIHRQEQLALFGIPLYKYITIEDSEEILRAIRMTPEDMPIDLILHTPGGLVLASEQIAIALKEHKAKTTVIIPHYAMSGGSLIALAADEIIIDKNAVMGPVDPQIGQYPAASIINAINTKYTDELDDETLILGDIARKAIVQVKEFVYDILKDKMGEEKAKYLSETLSTGKWTHDYPLTINKLKDLGIEVNTELPNIVYELFDLYRQPVNQRPSVQYVPVPYKRGTK	failed
MDQLSEKQIWYYHIIPEYQTEKSFYACVRRSGMIKFDTFYFPHMLSARETQRSIKFGDGVWSGCLYDPDIYTDGKISIQGVGGVLFPREAEIGGCVCLCLIFLIKLGLSTKYMKSHVSFDVSCDL	failed
MDQNAILLALGGIGAAALLSQWLAWRLRLPAILFLLLSGIVAGPLLGWLDPDEMFGPLLFPLVSLAVALILFEGSLTLHFSEWKEIGTVVHRMVTIGALSTWGVIALAAHYLLDFSWEMALLFGTLTLVTGPTVIVPMLRVVRPKAAVANILRWEGIVIDPIGALLAVVVYSFIISSGEGDGWLHSLQTFGGVILCGSLFGILGGWALGIVLRRHWLPDYLHNLATLAAVLGVFIASNRVMHESGLLAVTLMGMGLANMKGVDVRQILHFKENLSVLLISGLFILLAARLDINALLGLGPAALLVLLLIQFVARPLNVALSTWGSPLSWRERALLSWIAPRGIVAAAVSAIFAIRLSAEGHAQAALLVPLTFLVIIGTVVLQSATARPLARLLKVAEPSPSGYLIVGANPVGRAIGKALKSLGSRVLLTDSSWENIRAARMDNLPTYFGNPTSQHAEAHLDLVGIGHLLGVSPAGELNTLAAMRFRHEFGHRQLFGLPTSQEAKRTDKHRSSDEHRGRPLGQRPLTYAQFASLLSRGAEIRTTLLTDTFGWNDYQALHGESAILLFARDPNGRMHVATPQSTLAPGTGWTLLSLIDAEPSVSKSQATEIAD	failed
MDQSTRARTRTAFAIDAVGQGAKAAVKAVWWTATGGLARSLTRPTEGPQARRFTPAAPPPVPGSLRRAYLEAFEKDARDVAAGLYPAIEDGPIRPSAALREAVDFLVDAFEVDQRRRRGDGAEVRNAADPSVYPNYYRQNFHYQSGGWFTAESAGRYDAQVEALFSGTAGAMRRRGLSLLARHWRGRDHRDAKILDVACGSGAFLKDLSAAFPRAALAGLDLSEAYLAKARKRTAVGGVKAKAETLPFGDATLDAVTCVYLFHELPPRVRPVVAASLARVLKPGGVLVLVDSVQPVDTPDLARLLEAFPVYFHEPYYSSYAETNLEALFAEAGLRLLDQDCAFLTKAMLFVKPGG	failed
MDRADLRIAVLMGTKDGAPFIDEQLQSLLAQSHPLIDLWISDDGSVDGTVPIIEAWKSRWTKGRVTLVQGPREGFAANFRSMILDRRIDADFYAFSDQDDVWEPDRLESAVQWMQAFGAEPPLMFCSRTATMTETGSLAGHSPLFRRPPSFRNALVQSIAGGNTILLNRAARDLLARASARTGFVSHDWWAYLVVTGAGGVVHYDPRPLVRYRQHAANLVGANVSWAARVSRLGRLFKGEFADWTDLNLAGLAVNRDLLTPDAATCLDLFASGRQGSLFQRLRTLLVSGVYRQTLAGTLGLYLAFVLGRILEHHHHHH	failed
MDRGGVLRVAAAALPAYAYFYNVGSIGFWLPLHVRELGWPYTYITLIATWYFVAVTLATPLVGLLSDLTRRPGYILAGGMAVVAATSVAIPHVENPPLLMALRALQGLGLAVGLPIALGSLSLIQGVRRGVASTVIASGLGMSGGAFLSGLMVEYLGFPALFYAAAVPAALSTLVALGWRPPPPPSGSPGLLAALRSMPWEVLVVMAGIAVRNTFASGVFSVVSIIFNKIVGISYTATGVVLAINPAVQASVTTVFERIMRGRALLLYSTGLSGTALAFYLYLTAGSALDLAAAQIALGAFYGATVVSGNTMIIALAPSEIRYTASSLYTFAFNIGWILGTSIAGKVMDAAGVDAWIKLAIAGTLVSGLIPLTLLASPRARRI	failed
MDRRIAMSLQVLGAGLGRTGTLSLKFALEHLGFGPCYHATEVAANMRTALPLWNAAERGAADWSAIFAGYRSSTDHPGCYYWRQLIEVYPQAKVVLTVRDPDSWFESVTQTILMPGRKSTFVGPEGETFSTFLKQQMGGRSQDRAFMVDYFNRWNQAVIDAVPSDRLLVFSSRQGWAPLCGFLSVPVPHKPYPHLHARPRLRWFTRGLRLPDDVAARERHVREYLQYLREDLFGLEHHHHHH	not failed
MDRSERLIQLISEEGIDAFLIMNIENSARASSVYFSGFTGSFSIILISENTRLLITDSRYTVQAKQETDFEVREVKGGDFIDVLKKTVNDLKIKTIALEEERVSLSLFRRISSAFGDRKFIGIDDEVKQMRMVK	failed
MDRSLLMAIIMLVLGNNIVILSDSLIKLLDGFEAPFQFVLYRQISATLMLLPFMLLFKRPLLPKNIRWHATRAHIFLLGTVFMVISLTTLPLATANAIFYAAPIITVVLARMFFKERVTRLSLITAVLGMVGVLVIVNPSSTNIFALAALVVATTLALNNLLVKKLPAEHSILDTLYLTNLLGIPLASAMAWFEGASFDVSTFLISVGSSLFAMIYAGTCVFAYRAAESNKVTSAEYTGLIGAVILGIVFFTETPDARFYIGSVLIIAPLTVLTLRNSNRSA	failed
MDRYIDGFMKWMPESLFICFILTFLVVTMSVLMTDSPFIGTEKTGGIIYGWVNGFWGLLSFAMQMTILLATGNAVASSPPAHKMFKSLAKLPQTRTQIFIFSIVVGSIFGFLHWGLGMMVAIVFGKELLVQARQKGIKVHTPLFVATLFFTFLPATSGLSGAAVLYSATPDYLRNSVADAYKQVVPESVPLTESVLNLPFISLLVVCMLVPLCFALLAHPKDETKIMELDDEIYHHSLDTASHVVIARNTPAEKMNASRLVMYLVGGAIVSYSLYHFSVVGLSGLDLNCFNFLFLGLGLLLCGQQGPEYYGSLFKDGVMSSWGLVLQFPFYAGIFGIIQSTGLGLEISHFFVAISNGTTWPVFAYLYSALLNIAVPSGGSKFVIEAPYIVPATIEVGNDLGKILQAYQLGDATTNLIVPFWALSYLSNFKLKFNQIVAYTIPCVLVVTGIAIIYLFVF	failed
MDSDETGFEHSGLWVSVLAGLLLGACQAHPIPDSSPLLQFGGQVRQRYLYTDDAQQTEAHLEIREDGTVGGAADQSPESLLQLKALKPGVIQILGVKTSRFLCQRPDGALYGSLHFDPEACSFRELLLEDGYNVYQSEAHGLPLHLPGNKSPHRDPAPRGPARFLPLPGLPPALPEPPGILAPQPPDVGSSDPLSMVGPSQGRSPSYAS	failed
MDSEKALELVKHGATLLFLDVPQYTLVGIDTQIFAVGPAFKGIKMIPPGIHFVFYSSSTRDGREFSPTIGFFVDVAPSQVIVRKWNQQDEWLTKVSEEEEERYSQAVRSLEFDKNLGPYNLKQYGEWRHLSNYITKDVVEKFEPVGGEITVTYESAILKGGPKTAMEIALDTQMKKSKFTTSSTEQPKGNRFYYTSIPRIIKHKGMSGQELTSMNLDKTQLLESVLSKEYKDSEDLLLGELQFSFVAFLMGQSLESFMQWKSIVSLLLGCTSAPFQTRSQLFTKFIKVIYHQLKYGLQKENSGPETGIHALLDDSWLASDSFLHFLCKDFFALVEETSVVDGDLLSWTRKFKELLENRLGWEFQKKSAVDGIYFEEDDEYAPVVEMLDESHGEYMDKTT	failed
MDSGRLAVIALGGNAIAGPGMDVSVESQTAAVKRASSIIADVLADGWRSVITHGNGPQVGYLSEAFEALPPERPRQPLYIATAMTQAWIGLLLKHSLEEELRRRGLNVLVPVVISRVLVDVSDPSFNNPSKPVGPIYGREEAEELSRRYGWVFKRDPRGGFRRVVPSPRPVSIVDRDLIAEASAESPAVVALGGGGVPVVERPGGVLEPVEAVVDKDLASSLLATQLNADLLVILTDVPGVAVNYGREGERWLRRAAASELKKYLREGHFPPGSMGPKVEAAISFVERTGKPAVIGSLEEARQVLSLQAGTVVMLG	not failed
MDSITQAALGASIAGAVAGKTLGRSALLTGALLGTLPDLDVVIDYGTAVANFTQHRGFSHSLFILAPLSLLIAWGLWRWKPLISYQRWLALVGLILITHPLLDAFTTYGTQLFWPIGPPVAINSIFIIDPLYTLPLLAGCLAFLYRPPASRTVAAGLLVSSLYLGWTLIAQQIITDRVRPALANAGMEQAALMVQPMPFNTVLWRATAVSAGQRIEVVTGFLDASDELVLERFPRQPELARLVAELPEARRLEWFTGGFLDYQQNGTQITATDIRLGIPGAHPFTFILAETAEDGLQPLASDRLPRPALNRAALPLLWDRMTGQVPVLCLATLSVPNHGNSC	failed
MDSLIPFDYATLRVLWWLLLGALLIGFAVMDGFDLGVAALLPLVAKTDVERRVVLNVVGPVWEGNQVWLITAGGAIFAAWPLLYAASFSGFYLAMMLVLIALILRPVGFKYRSKMEGTRWRSRWDAVLCFCGVVAALVFGVAMGNIILGVPFGFDAATLRPEYEGHFYQLFKPFALLAGLVSVAMMVMHGGVLLAWRTHDPVSSRARNWGRLAALVTAALFVAGGFWVAYGLDGHVITSAVDMHAPSNPMLKTVELQAGGWMANYEKWPLTWIAPALGVGGALLAFVLLSARANVLAFLASSVSIAGIILTVGFALFPFIMPSSSRPGAGLTVWDGSSSLLTLWIMLLAVAFFLPIITVYTAWVYRVMRGKVTEDSVDGTPNSY	failed
MDSLMTLLSVLIPMFAGFFIRVPKPYLPALDKVLSVLVYAVLLLIGVSLSRVEDLGSRLDDMALTVLWLFVCTVGANLLALAVLGKLFP	failed
MDSRSLSVHDGAMQTLTVPDSGLAPLLPGQRLARGVCRHLRSHDFVSVVELVPAPGLRVDVMALGPKGEIWVVECKSSRADYQSDRKWQGYLDWCDRFFFAVDEAFPVDLLPEGTGLMLADGYDAEILRIGPEGRLAPARRKAVIQGFARHAALRLQGLRDPGAFPG	failed
MDSSLSQKFTLAYASLLGVGGLMGYLKRGSKISLVAGGGSAALFYYVYTELPGNPVLASSIGIVGSAALTGMMGSRYLRTRKVVPAGLVSVVSLVMTGAYLHGLIRSS	failed
MDSSSLEQELRWMKLVWEEAPGDKTEGPLTSPGWSTLFQAVWWGAPSLVMQLLRQGSSVEERDHTGRTPLHLAVMRGHAPLVRLLLQRGALAGAADHTGRTPLHEAAWHGHSNVAELLLRRGASAAACSQTGLTPLHGAAALGRTLLVTSFTVASDSGSDVKDVRGWTAAHWAAACGQLAVLELLSAGGNADLDGALLVSAIAGSTSSLQLLLTLGAKVDTQDSTGATALGLAAGLGHHQMLFFLCCLKKKQERKTHCWDWPLANLDPLEEQKLQELSIPRNLASVPAGGWTPSPGYIFRTVDTFVHGQLMPTEERTTECSLAVSVDLISVRDCSPSPPAGFPPVSALTIHPRADGLAQRN	failed
